The numbers were not newly measured in PMC10560217, which cites them from elsewhere.

Where two headings read alike, the source gives them in different places.

As a reminder, the Kd is the concentration at which binding is half-saturated.

The target in data set [1] is dmIR (Drosophila melanogaster) (UniProt P09208).
The target is the same in data set [2]. This is another data set of the same source.
Data set [3] shares this target. This is another data set of the same source.
The target of data set [4] is hIR ECD (Homo sapiens) (UniProt P06213).

Chain of dmIR (Drosophila melanogaster) (P09208 44-1310): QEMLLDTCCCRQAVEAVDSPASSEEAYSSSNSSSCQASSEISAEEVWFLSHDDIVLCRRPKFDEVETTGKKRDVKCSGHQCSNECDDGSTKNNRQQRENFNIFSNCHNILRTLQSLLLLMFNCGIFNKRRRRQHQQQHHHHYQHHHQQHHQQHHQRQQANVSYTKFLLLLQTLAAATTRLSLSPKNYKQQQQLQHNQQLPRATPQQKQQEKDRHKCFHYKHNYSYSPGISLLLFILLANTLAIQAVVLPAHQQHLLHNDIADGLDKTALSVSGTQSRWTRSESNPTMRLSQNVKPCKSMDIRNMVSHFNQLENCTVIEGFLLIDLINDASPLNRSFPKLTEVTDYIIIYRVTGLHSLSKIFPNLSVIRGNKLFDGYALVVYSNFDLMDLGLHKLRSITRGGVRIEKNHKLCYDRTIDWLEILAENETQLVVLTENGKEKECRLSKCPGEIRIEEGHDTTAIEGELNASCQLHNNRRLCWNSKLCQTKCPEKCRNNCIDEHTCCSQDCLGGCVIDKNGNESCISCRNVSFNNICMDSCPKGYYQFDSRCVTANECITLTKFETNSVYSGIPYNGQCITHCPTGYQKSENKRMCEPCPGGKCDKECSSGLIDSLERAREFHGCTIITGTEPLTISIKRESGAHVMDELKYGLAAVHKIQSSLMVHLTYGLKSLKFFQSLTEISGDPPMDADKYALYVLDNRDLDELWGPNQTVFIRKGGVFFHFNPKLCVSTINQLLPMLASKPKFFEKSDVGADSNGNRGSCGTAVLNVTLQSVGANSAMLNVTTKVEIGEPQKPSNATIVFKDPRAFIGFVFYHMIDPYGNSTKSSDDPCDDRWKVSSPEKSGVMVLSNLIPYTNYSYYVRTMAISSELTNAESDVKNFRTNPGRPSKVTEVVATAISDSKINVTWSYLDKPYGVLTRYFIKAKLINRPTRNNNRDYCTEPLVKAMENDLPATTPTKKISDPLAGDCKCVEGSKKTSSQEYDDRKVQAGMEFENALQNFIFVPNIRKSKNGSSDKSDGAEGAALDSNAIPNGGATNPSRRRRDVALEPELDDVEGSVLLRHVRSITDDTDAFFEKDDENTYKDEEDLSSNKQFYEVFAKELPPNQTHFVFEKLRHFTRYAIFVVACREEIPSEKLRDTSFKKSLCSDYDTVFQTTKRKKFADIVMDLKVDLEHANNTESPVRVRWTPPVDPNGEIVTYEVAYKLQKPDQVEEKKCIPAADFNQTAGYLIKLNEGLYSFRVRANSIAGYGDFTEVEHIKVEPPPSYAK
Chain of DILP5 DB (Q7KUD5 23-50): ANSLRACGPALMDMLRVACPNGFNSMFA
Chain of DILP5 DB (Q7KUD5 84-108): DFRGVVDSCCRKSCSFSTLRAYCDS
Chain of DILP5 C4 (Q7KUD5 87-108): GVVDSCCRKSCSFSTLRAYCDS
Chain of insulin (P01308 90-110): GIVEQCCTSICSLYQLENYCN

Regarding DILP5 C4 (from UniProt Q7KUD5), the Kd in data set [1] was 0.76 nM.

Turning to DILP5 DB (from UniProt Q7KUD5), the Kd in data set [2] was 0.35 nM. With hIGF-1 (from UniProt P05019), in data set [3], the Kd was 5910 nM. Turning to insulin (from UniProt P01308), the Kd in data set [4] is 30 nM.
